From article PMC6087011, “The mechanism by which a distinguishing arabinofuranosidase can cope with internal di-substitutions in arabinoxylans” (Biotechnology for Biofuels, 2018)

Columns and labels:
[1] = tested on: O=[N+]([O-])c1ccc(O[C@@H]2O[C@@H](CO)[C@H](O)[C@H]2O)cc1; test: purified protein; conditions: pH 5.5 McIlvaine buffer, 50 °C
[2] = target: XacAbf51, GH51 α-L-arabinofuranosidase from Xanthomonas axonopodis pv. citri (X. axonopodis pv. citri str. 306); test: AUC
[3] = target: XacAbf51, GH51 α-L-arabinofuranosidase from Xanthomonas axonopodis pv. citri (X. axonopodis pv. citri str. 306); test: SAXS
[4] = target: XacAbf51, GH51 α-L-arabinofuranosidase from Xanthomonas axonopodis pv. citri (X. axonopodis pv. citri str. 306); test: […]; 20 °C; […], pH 7.5; […]
[5] = substrate: O=[N+]([O-])c1ccc(O[C@@H]2O[C@@H](CO)[C@H](O)[C@H]2O)cc1; test: colorimetric p-nitrophenolate release, A400; format: biochemical, Thermobacillus xylanilyticus; conditions: pH 5.5 McIlvaine buffer, 50 °C
Text: colorimetric p-nitrophenolate release, A400 on TxAbfD3

With “XacAbf51 (Xanthomonas citri subsp. citri 306)” the Km [1] was 0.19 ± 0.01 mM, the kcat [1] was 56.4 ± 0.8 s⁻¹ and the kcat/Km [1] was 300000 M⁻¹ s⁻¹.

With “XacAbf51, GH51 α-L-arabinofuranosidase from Xanthomonas axonopodis pv. citri (enzyme)” the stoichiometry N [2] was 3, the stoichiometry N [3] was 3 and the stoichiometry N [4] was 3.

B1: TxAbfD3 (Thermobacillus xylanilyticus) (protein)
chain: MNVASRVVVNADRVKGTINRNIYGHFSEHLGRCIYEGLWVGEDSPIPNTNGIRNDVLEALKQMKIPVLRWPGGCFADEYHWKDGVGPREKRKRMVNTHWGGVIENNHFGTHEFMMLCELLGCEPYISGNVGSGTVQEMSEWVEYITFDGESPMANWRRENGREKPWRIKYWGVGNENWGCGGNMRAEYYADLYRQFQTYLRNYGDNKLHKIACGANTADYHWTEVLMKQAAPFMHGLSLHYYTVPGPWEKKGPATGFTTDEWWVTLKKALFMDRLVTKHSAIMDVYDPDKRIDLIVDEWGTWYDVEPGTNPGFLYQQNSIRDALVAGATLHIFHRHCDRVRMANIAQLVNVLQSVILTEGERMLLTPTYHVFNMFKVHQDAELLDTWESVERTGPEGELPKVSVSASRAADGKIHISLCNLDFETGASVDIELRGLNGGVSATGTTLTSGRIDGHNTFDEPERVKPAPFRDFKLEGGHLNASLPPMSVTVLELTAG
For B1, the Km [5] was 0.52 ± 0.06 mM, the kcat [5] was 154 ± 4.2 s⁻¹ and the kcat/Km [5] was 300000 M⁻¹ s⁻¹.
